In US20190241629A1:

How the values were obtained:
[1] = molecular target: recombinant factor B derived from Tachypleus tridentatus (Tachypleus tridentatus) (UniProt Q27081); assay: cell-based or functional assay
[2] = molecular target: T1, recombinant factor B derived from Tachypleus tridentatus, Q27081
T1 chain: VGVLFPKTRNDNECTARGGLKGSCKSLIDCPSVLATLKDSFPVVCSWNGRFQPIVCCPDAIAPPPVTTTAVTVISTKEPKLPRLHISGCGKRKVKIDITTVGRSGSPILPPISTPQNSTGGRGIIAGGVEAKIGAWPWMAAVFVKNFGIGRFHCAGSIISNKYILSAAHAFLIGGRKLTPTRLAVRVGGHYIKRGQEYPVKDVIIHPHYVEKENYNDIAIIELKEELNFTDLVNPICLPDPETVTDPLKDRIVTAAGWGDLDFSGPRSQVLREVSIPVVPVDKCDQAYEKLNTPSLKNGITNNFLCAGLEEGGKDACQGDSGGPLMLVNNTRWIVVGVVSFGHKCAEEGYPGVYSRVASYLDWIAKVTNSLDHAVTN

[3] = molecular target: T2, recombinant protein having factor B activity of Limulus polyphemus (recombinant second protein)
T2 chain: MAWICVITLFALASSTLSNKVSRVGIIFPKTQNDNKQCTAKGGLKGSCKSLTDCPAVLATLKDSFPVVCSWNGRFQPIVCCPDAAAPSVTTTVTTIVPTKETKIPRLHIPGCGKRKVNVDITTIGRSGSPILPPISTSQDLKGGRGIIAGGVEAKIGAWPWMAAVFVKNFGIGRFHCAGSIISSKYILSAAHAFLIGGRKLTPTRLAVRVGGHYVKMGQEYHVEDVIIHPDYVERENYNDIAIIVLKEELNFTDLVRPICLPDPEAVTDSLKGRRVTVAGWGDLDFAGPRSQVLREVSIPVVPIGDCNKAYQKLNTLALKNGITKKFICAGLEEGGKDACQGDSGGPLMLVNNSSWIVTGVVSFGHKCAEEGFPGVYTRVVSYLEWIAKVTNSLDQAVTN

[4] = molecular target: T3, recombinant protein having proclotting enzyme activity of Limulus polyphemus (recombinant third protein)
T3 chain: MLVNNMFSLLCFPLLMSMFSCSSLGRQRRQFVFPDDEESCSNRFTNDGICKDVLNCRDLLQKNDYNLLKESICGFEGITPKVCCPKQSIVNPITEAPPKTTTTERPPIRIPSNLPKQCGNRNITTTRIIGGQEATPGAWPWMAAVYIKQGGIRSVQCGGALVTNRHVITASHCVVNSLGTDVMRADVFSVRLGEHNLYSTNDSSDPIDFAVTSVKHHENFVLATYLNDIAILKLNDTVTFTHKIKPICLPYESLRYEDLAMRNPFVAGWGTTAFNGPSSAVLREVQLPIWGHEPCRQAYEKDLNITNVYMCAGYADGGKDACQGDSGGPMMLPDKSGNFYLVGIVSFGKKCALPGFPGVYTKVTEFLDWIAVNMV

recombinant factor C derived from the genus Tachypleus (Tachypleus tridentatus) (from UniProt P28175 26-1019) (enzyme)
change in the absorbance in the cascade reaction system (TFC + TFB + TPCE + Boc-LGR-pNA) at endotoxin 0 EU/mL (blank) [1]: 0.51 mAbs/min
change in the absorbance in the cascade reaction system (TFC + TFB + TPCE + Boc-LGR-pNA) at endotoxin 0.05 EU/mL [1]: 9.15 mAbs/min

B1: recombinant factor C derived from Limulus polyphemus (recombinant first protein, protein having factor C activity) (protein)
chain: RGVDLGLCDDTRFECKCGDPGYVFNVPAKQCTYFYRWRPYCKPCDKLEAKDVCPKYKRCQECRAGLDSCVSCPPNKYGTWCSGECQCKNGGICDQRTGACTCRDRYEGVHCEILQGCPLLQSDPQVQEVKNPPNDPQTIDYSCSPGFKLKGVARITCLPNGQWSSFPPKCIRECSMVSSLEHGKVNSPSADLIEGATLRFSCDSPYYLIGQETLTCQGNGQWSGQIPQCQKLVFCPDLDPVSHAEHQVKIGLEQKYGQFPQGTEVTYTCTGNYFLMGLDTLKCNPDGSWSGTQPSCVKVADREVNCDSKAVDFLDDVGEPVRIHCPAGCSLTAGTVWGTAIYHELSSVCRAAIHAGKVPNSGGAVHVVNNGPYSDFLASDLNGIKSDELKSLAQSFRFDYVSSSTAGRKSGCPDGWFEIEENCVYVTSKQRAWERAQGVCTNMAARLAVLDKDVIPSSLTETLRGKGLATTWIGLHRLDADNHFIWELMDRSSVALNDSLTFWAPGEPGNETNCVYLDIQDQLQPVWKTKSCFQPSSFVCMMDLSDKNKAKCKDPGPLENGHAKLHGQSIDGFYAGSSVRYSCEVLHYLSGTETVSCTSNGTWSAPKPRCIKVITCQTPPVPSYGSVDIKPPSRTNSISRVGSPFLRLPRLPLPLARAAGPPPKPRSAPPSTVDLSSKVKLPEGHYRVGSQAIYTCESRYYELLGSQGRRCDSNGKWSGRPASCIPVCGRSDSPRSPFIVNGNSTEIGQWPWQAGISRWLADHNMWFLQCGGALLNEKWIITAAHCVTYSATAEIIDPSQFKFYLGKYYRDDSKDDDYVQVREAIEIHVNPNYDPGNLNFDIALIQLKTSVALTTRVQPICLPTDLTTRENLKEGALAVVTGWGLNENNTYSEMIQQAVLPVVAASTCEQGYQDSGLPLTVTENMFCAGYKQGRYDACSGDSGGPLVFADDSRTDRRWVLEGIVSWGSPNGCGKSNQYGGFTKVNVFLSWIRQFI
change in the absorbance in the cascade reaction system (LFC + TFB + TPCE + Boc-LGR-pNA) at endotoxin 0 EU/mL (blank) [1]: 0.53 mAbs/min
change in the absorbance in the cascade reaction system (LFC + TFB + TPCE + Boc-LGR-pNA) at endotoxin 0.05 EU/mL [1]: 14.3 mAbs/min
activity in the cascade reaction system relative to TFC [2]: LFC showed the activity about 1.6 times (about 2.2 times when considering the difference in the protein amount) higher than TFC
activity in the cascade reaction system relative to TFC, corrected for the difference in the protein amount [2]: LFC showed the activity about 1.6 times (about 2.2 times when considering the difference in the protein amount) higher than TFC
cleavage of synthetic substrate Boc-LGR-pNA (change in absorbance A405 nm) in the cascade reaction with endotoxin (0 and 0.05 EU/mL); FC + FB + PCE [3]: when all the three types of recombinant proteins were included, cleavage of the synthetic substrate was observed

B2: recombinant protein having factor B activity of Limulus polyphemus (recombinant second protein) (protein)
chain: MAWICVITLFALASSTLSNKVSRVGIIFPKTQNDNKQCTAKGGLKGSCKSLTDCPAVLATLKDSFPVVCSWNGRFQPIVCCPDAAAPSVTTTVTTIVPTKETKIPRLHIPGCGKRKVNVDITTIGRSGSPILPPISTSQDLKGGRGIIAGGVEAKIGAWPWMAAVFVKNFGIGRFHCAGSIISSKYILSAAHAFLIGGRKLTPTRLAVRVGGHYVKMGQEYHVEDVIIHPDYVERENYNDIAIIVLKEELNFTDLVRPICLPDPEAVTDSLKGRRVTVAGWGDLDFAGPRSQVLREVSIPVVPIGDCNKAYQKLNTLALKNGITKKFICAGLEEGGKDACQGDSGGPLMLVNNSSWIVTGVVSFGHKCAEEGFPGVYTRVVSYLEWIAKVTNSLDQAVTN
cleavage of synthetic substrate Boc-LGR-pNA (change in absorbance A405 nm) in the cascade reaction with endotoxin (0 and 0.05 EU/mL); FC + FB + PCE [4]: when all the three types of recombinant proteins were included, cleavage of the synthetic substrate was observed
